{
  "source": "paper PMC4501269",
  "about": "(Biochemistry, 2011)",
  "origin": "cited, not measured here",
  "key": {"[1]": {"tested_on": "PPARγ"}, "[2]": {"target": "SRC-1 (Homo sapiens) (UniProt Q15788)", "sequence (Q15788 2-1441)": "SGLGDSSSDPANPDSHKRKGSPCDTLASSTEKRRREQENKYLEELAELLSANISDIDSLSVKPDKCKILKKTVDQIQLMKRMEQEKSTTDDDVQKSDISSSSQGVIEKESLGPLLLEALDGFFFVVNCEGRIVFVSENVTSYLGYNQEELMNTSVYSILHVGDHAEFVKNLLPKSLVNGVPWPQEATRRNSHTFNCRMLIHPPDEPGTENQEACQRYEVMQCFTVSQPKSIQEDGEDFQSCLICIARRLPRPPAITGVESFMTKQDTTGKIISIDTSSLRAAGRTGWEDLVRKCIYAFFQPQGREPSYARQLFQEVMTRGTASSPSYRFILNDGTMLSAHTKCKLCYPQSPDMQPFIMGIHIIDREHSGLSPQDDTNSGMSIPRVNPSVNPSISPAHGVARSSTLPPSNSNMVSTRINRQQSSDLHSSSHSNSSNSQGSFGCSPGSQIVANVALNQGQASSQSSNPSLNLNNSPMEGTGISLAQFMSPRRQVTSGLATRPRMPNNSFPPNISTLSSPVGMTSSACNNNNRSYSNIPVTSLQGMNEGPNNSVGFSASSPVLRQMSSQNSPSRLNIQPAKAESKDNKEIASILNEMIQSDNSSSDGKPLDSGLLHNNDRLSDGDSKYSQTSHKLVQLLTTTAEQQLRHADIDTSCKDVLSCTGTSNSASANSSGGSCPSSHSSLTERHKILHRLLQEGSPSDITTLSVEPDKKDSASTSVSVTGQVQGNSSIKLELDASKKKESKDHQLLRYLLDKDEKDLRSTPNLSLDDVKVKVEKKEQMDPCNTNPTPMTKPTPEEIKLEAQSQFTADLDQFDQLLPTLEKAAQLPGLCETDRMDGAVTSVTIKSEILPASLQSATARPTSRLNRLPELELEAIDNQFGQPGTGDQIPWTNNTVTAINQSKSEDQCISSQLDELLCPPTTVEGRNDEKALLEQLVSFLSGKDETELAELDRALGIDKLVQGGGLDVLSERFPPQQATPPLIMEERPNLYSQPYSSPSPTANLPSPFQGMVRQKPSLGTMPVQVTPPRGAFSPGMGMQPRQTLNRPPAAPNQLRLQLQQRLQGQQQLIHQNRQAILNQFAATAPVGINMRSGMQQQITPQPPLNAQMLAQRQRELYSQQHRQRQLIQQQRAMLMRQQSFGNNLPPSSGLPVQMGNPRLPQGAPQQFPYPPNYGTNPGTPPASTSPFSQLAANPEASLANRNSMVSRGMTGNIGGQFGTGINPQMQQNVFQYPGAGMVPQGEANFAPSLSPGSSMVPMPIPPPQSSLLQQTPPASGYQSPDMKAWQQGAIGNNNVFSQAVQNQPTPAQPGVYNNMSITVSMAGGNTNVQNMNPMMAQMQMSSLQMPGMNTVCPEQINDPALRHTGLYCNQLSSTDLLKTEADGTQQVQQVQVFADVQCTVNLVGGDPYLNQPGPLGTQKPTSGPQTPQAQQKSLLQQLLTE"}, "[3]": {"target": "SRC-1 (Homo sapiens) (UniProt Q15788)", "remark": "listed apart in the source"}, "[4]": {"target": "SRC-1 (Homo sapiens) (UniProt Q15788)", "experiment": "fluorescence polarization"}, "[5]": {"target": "SRC-2 (Homo sapiens) (UniProt Q15596)", "sequence (Q15596 2-1464)": "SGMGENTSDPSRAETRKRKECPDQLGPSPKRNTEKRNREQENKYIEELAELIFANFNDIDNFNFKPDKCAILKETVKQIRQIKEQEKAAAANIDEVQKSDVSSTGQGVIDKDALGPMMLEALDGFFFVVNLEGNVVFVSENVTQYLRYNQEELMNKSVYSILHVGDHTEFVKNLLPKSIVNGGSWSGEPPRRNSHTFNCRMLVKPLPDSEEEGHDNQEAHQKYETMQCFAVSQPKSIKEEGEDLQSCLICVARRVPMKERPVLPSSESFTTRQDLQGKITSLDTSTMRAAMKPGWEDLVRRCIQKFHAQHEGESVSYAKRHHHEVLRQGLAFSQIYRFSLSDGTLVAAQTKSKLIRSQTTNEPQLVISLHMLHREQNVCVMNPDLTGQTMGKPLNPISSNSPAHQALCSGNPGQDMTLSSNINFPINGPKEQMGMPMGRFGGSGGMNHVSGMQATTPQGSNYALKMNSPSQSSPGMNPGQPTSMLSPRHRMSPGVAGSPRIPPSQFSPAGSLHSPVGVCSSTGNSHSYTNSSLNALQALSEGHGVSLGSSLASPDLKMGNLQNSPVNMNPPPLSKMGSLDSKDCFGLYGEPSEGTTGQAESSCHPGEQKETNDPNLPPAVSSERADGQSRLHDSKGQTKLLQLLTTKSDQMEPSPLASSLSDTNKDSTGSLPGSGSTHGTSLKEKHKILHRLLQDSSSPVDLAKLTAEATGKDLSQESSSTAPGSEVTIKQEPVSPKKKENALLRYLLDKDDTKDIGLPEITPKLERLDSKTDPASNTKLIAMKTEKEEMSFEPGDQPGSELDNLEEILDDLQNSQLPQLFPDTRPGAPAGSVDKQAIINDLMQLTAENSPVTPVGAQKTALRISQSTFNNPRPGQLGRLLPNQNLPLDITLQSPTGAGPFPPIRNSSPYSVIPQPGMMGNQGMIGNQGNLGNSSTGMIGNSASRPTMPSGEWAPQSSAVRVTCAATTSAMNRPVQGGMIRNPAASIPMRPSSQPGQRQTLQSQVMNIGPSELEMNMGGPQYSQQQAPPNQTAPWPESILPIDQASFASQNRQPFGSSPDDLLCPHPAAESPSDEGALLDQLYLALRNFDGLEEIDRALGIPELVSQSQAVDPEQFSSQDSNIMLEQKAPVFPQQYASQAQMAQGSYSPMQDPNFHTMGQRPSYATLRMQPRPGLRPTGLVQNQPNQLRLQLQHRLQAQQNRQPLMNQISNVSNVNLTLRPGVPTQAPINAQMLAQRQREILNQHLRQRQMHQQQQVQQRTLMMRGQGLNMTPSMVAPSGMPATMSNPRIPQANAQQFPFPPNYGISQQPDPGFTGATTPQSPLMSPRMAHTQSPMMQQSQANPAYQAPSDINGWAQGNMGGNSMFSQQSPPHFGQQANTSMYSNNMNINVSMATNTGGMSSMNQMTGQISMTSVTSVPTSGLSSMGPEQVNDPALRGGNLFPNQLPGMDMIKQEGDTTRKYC", "experiment": "fluorescence cross-correlation spectroscopy"}, "[6]": {"target": "SRC-2 (Homo sapiens) (UniProt Q15596)", "experiment": "fluorescence cross-correlation spectroscopy", "remark": "listed apart in the source"}, "[7]": {"target": "SRC-2 (Homo sapiens) (UniProt Q15596)", "experiment": "fluorescence cross-correlation spectroscopy", "remark": "listed apart in the source"}},
  "note": "Where two headings read alike, the source gives them in different places.",
  "data": [
    {"molecule": "COc1ccc2c(c1)c(CC(=O)O)c(C)n2C(=O)c1ccc(Cl)cc1", "note": "[IDM, indomethacin]", "values": [
      {"measurement": "increase in the affinity of PPARγ for SRC-1", "setting": "[1]", "value": 30, "unit": "fold"}
    ]},
    {"molecule": "PPARγ (from UniProt P37231)", "values": [
      {"measurement": "Kd", "setting": "[2]", "value": 0.96, "unit": "µM"},
      {"measurement": "Kd", "setting": "[3]", "value": 34.2, "unit": "µM"}
    ]},
    {"molecule": "estrogen receptor (from UniProt P03372)", "values": [
      {"measurement": "Kd", "setting": "[4]", "value": 0.03, "unit": "µM"},
      {"measurement": "Kd", "setting": "[5]", "value": "< 0.006", "unit": "µM"},
      {"measurement": "Kd", "setting": "[6]", "value": "> 3", "unit": "µM"},
      {"measurement": "Kd", "setting": "[7]", "value": 0.2, "unit": "µM"}
    ]},
    {"molecule": "estrogen receptor LBD (from UniProt P03372)", "values": [
      {"measurement": "Kd", "setting": "[4]", "value": 0.03, "unit": "µM"}
    ]}
  ]
}
